Results published in patent US20030235863A1 (published 2003).
No end group written: not given here. *: point of attachment. For = O=C*

T1: C-terminal hexahistidine-tagged FPR (human, UniProt P21462 1-350)
T1 construct: Construct limits and junction are not described; also called FPR:C-H6; C-H6:FPR
T1 sequence: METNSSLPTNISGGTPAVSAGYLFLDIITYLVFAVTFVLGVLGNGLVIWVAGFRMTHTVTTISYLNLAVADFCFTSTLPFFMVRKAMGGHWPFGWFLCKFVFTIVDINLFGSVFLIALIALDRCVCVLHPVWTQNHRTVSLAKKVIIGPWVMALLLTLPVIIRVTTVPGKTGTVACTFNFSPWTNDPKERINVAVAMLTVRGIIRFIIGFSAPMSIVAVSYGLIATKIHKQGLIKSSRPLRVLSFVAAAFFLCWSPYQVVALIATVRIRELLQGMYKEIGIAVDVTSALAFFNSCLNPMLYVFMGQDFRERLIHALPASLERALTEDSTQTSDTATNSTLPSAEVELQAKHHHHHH

T2: N-terminal hexahistidine-tagged FPR (human, UniProt P21462 1-350)
T2 construct: Construct limits and junction are not described; also called N-H6:FPR
T2 sequence: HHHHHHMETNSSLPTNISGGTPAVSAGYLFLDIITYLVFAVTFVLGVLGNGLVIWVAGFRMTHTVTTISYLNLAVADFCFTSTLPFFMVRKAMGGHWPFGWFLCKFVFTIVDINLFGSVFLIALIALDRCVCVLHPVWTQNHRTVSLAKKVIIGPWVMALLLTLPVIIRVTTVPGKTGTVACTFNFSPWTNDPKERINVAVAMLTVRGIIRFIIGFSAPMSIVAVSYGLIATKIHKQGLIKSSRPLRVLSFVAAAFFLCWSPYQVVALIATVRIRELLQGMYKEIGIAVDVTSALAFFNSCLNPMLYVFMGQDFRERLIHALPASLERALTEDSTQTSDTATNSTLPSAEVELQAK

B1: formyl peptide receptor (FPR), wild type, solubilized in dodecyl maltoside (receptor, human, UniProt P21462 1-350, looked up)
chain: METNSSLPTNISGGTPAVSAGYLFLDIITYLVFAVTFVLGVLGNGLVIWVAGFRMTHTVTTISYLNLAVADFCFTSTLPFFMVRKAMGGHWPFGWFLCKFVFTIVDINLFGSVFLIALIALDRCVCVLHPVWTQNHRTVSLAKKVIIGPWVMALLLTLPVIIRVTTVPGKTGTVACTFNFSPWTNDPKERINVAVAMLTVRGIIRFIIGFSAPMSIVAVSYGLIATKIHKQGLIKSSRPLRVLSFVAAAFFLCWSPYQVVALIATVRIRELLQGMYKEIGIAVDVTSALAFFNSCLNPMLYVFMGQDFRERLIHALPASLERALTEDSTQTSDTATNSTLPSAEVELQAK
notes: Crude detergent extract of membranes, not purified; the extract holds endogenous G protein subunits; also called wild type receptor; soluble FPR
B2: FPR-Giα2 fusion protein (receptor, human;rat)
chain: METNSSLPTNISGGTPAVSAGYLFLDIITYLVFAVTFVLGVLGNGLVIWVAGFRMTHTVTTISYLNLAVADFCFTSTLPFFMVRKAMGGHWPFGWFLCKFVFTIVDINLFGSVFLIALIALDRCVCVLHPVWTQNHRTVSLAKKVIIGPWVMALLLTLPVIIRVTTVPGKTGTVACTFNFSPWTNDPKERINVAVAMLTVRGIIRFIIGFSAPMSIVAVSYGLIATKIHKQGLIKSSRPLRVLSFVAAAFFLCWSPYQVVALIATVRIRELLQGMYKEIGIAVDVTSALAFFNSCLNPMLYVFMGQDFRERLIHALPASLERALTEDSTQTSDTATNSTLPSAEVELQAKAAAMGCTVSAEDKAAAERSKMIDKNLREDGEKAAREVKLLLLGAGESGKSTIVKQMKIIHEDGYSEEECRQYRAVVYSNTIQSIMAIVKAMGNLQIDFADPQRADDARQLFALSCAAEEQGMLPEDLSGVIRRLWADHGVQACFGRSREYQLNDSAAYYLNDLERIAQSDYIPTQQDVLRTRVKTTGIVETHFTFKDLHFKMFDVGGQRSERKKWIHCFEGVTAIIFCVALSAYDLVLAEDEEMNRMHESMKLFDSICNNKWFTDTSIILFLNKKDLFEEKITQSPLTICFPEYTGANKYDEAASYIQSKFEDLNKRKDTKEIYTHFTCATDTKNVQFVFDAVTDVIIKNNLKDCGLF
notes: Solubilized in dodecyl maltoside; also called FPR-αi2; FPR-Gαi2
B3: FPR-GFP fusion protein (receptor)
chain: METNSSLPTNISGGTPAVSAGYLFLDIITYLVFAVTFVLGVLGNGLVIWVAGFRMTHTVTTISYLNLAVADFCFTSTLPFFMVRKAMGGHWPFGWFLCKFVFTIVDINLFGSVFLIALIALDRCVCVLHPVWTQNHRTVSLAKKVIIGPWVMALLLTLPVIIRVTTVPGKTGTVACTFNFSPWTNDPKERINVAVAMLTVRGIIRFIIGFSAPMSIVAVSYGLIATKIHKQGLIKSSRPLRVLSFVAAAFFLCWSPYQVVALIATVRIRELLQGMYKEIGIAVDVTSALAFFNSCLNPMLYVFMGQDFRERLIHALPASLERALTEDSTQTSDTATNSTLPSAEVELQAKAAA
notes: Solubilized in dodecyl maltoside from membranes of transfected cells; also called R^F; fluorescent formyl peptide receptor; not shown: Clontech's EGFP (enhanced green fluorescent protein), from its first amino acid
B4: formyl-MLFK-FITC (peptide)
peptide: For-MLFK
modifications: also: FITC conjugated, site not given here
notes: everywhere else it is fMLFK-FITC; also called fMLFK-FITC; fluorescent ligand

Legend:
[1] = biological target: G protein heterotrimer αi3β1H6γ2 on DCNi beads; assay: flow cytometry, L^FRG assembly on DCNi G beads
Chain of G protein heterotrimer αi3β1H6γ2 on DCNi beads (chain, as listed by the source, chain 1 of 3): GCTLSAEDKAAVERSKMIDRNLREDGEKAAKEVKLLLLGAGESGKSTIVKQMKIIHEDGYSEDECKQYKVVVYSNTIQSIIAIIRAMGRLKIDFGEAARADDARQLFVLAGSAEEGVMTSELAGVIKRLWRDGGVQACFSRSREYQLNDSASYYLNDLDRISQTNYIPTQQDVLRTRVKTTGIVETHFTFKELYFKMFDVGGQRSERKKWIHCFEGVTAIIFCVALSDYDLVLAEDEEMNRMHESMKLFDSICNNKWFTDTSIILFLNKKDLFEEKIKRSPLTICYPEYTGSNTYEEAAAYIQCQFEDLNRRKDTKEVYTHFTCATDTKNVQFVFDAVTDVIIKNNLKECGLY
Chain of G protein heterotrimer αi3β1H6γ2 on DCNi beads (chain, as listed by the source, chain 2 of 3): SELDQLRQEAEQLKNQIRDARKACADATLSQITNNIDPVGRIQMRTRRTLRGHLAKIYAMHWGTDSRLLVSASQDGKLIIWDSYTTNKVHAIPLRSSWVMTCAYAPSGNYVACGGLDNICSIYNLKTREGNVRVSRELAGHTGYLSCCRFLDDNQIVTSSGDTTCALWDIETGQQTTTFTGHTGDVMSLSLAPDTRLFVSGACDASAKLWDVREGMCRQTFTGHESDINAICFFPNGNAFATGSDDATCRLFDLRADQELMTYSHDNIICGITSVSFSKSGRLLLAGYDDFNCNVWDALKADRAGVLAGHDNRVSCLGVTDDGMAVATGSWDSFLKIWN
Chain of G protein heterotrimer αi3β1H6γ2 on DCNi beads (chain, as listed by the source, chain 3 of 3): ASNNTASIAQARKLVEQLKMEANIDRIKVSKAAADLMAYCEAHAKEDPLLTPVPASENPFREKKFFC

Gαi3β4γ2H6-FLAG = biological target: T3, Gαi3β4γ2H6-FLAG; assay: flow cytometry, LRG assembly on anti-FLAG beads
T3 construct: Held on streptavidin-coated polystyrene beads through a biotinylated anti-FLAG antibody; also called αi3β4γ2-FLAG-H6
T3 sequence (P08753 2-354, chain 1 of 3): as the sequence (chain, as listed by the source, chain 1 of 3) above
T3 sequence (P29387 2-340, chain 2 of 3, further chain): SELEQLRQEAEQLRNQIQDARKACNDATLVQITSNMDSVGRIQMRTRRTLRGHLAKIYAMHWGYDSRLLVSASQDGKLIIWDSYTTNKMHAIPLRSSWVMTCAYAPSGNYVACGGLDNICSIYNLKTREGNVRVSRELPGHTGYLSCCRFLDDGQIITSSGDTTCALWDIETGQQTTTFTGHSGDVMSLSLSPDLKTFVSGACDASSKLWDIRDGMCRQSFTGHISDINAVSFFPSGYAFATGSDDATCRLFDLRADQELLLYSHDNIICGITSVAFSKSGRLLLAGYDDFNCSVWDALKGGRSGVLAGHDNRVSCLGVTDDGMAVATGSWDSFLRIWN
T3 sequence (P63212 2-68, chain 3 of 3, further chain): as the sequence (chain, as listed by the source, chain 3 of 3) above

[2] = biological target: G protein heterotrimer αi3β1H6γ2 on DCNi beads; assay: flow cytometry, standard LRG assembly on nickel beads
[3] = biological target: β1H6γ2 dimer on DCNi beads; assay: flow cytometry, βγ-coated DCNi beads, 1 µM GTP (bar 6) against GTPγS (bar 2)
Chain of β1H6γ2 dimer on DCNi beads (chain, as listed by the source, chain 1 of 2): as the sequence (chain, as listed by the source, chain 2 of 3) above
Chain of β1H6γ2 dimer on DCNi beads (chain, as listed by the source, chain 2 of 2): as the sequence (chain, as listed by the source, chain 3 of 3) above

[4] = biological target: G protein heterotrimer αi3β1H6γ2 on DCNi beads; assay: flow cytometry, standard assembly (bar 3) against GTPγS (bar 4)
[5] = biological target: B1; assay: spectrofluorimetry, soluble FPR in dodecyl maltoside, free ligand quenched by anti-FITC antibody
From the text: For accurate analysis, and for kinetic dissociation analysis, the percent of the control curve corresponding to the percent free ligand was subtracted from the receptor-containing curve.
The free ligand and bound ligand were discriminated using an antibody to fluorescein that rapidly quenched only the free ligand.

[6] = biological target: B1; assay: soluble receptor in detergent, spectrofluorimetry
Method: (§1) Spectrofluorimetric Analysis of Soluble Complexes. Fluorescence was measured with an SLM 8000 spectrofluorimeter (SLM Instruments, Inc.) using the photon counting mode. The sample holder was fitted with a cylindrical cuvette adapter, which allowed the use of 200 μl samples in 7mm ×45 mm cylindrical cuvettes (Sienco; Wheat Ridge, Colo.), stirred with 2×5 mm stir bars (Bel-Art). Excitation was at 490 nm, and stray light was reduced with a 490+/−10 nm filter (Corion; now part of Spectra-Physics, Franklin, Mass.). Emission was monitored using a 520+/−10 nm filter (Corion) and a 500 nm long-pass filter (Kopp; Pittsburg, Pa.). Additions to samples during kinetic measurements were made through an injection port on the top of the sample holder with 10 μl glass syringes (Hamilton; Reno, Nev.). […] For accurate analysis, and for kinetic dissociation analysis, the percent of the control curve corresponding to the percent free ligand was subtracted from the receptor-containing curve.

[7] = biological target: T1, C-terminal hexahistidine-tagged FPR; assay: soluble receptor in detergent, spectrofluorimetry
Method: as §1

[8] = biological target: T2, N-terminal hexahistidine-tagged FPR; assay: soluble receptor in detergent, spectrofluorimetry
Method: as §1

[9] = biological target: T1, C-terminal hexahistidine-tagged FPR; assay: receptor on DCNi beads, flow cytometry
[10] = biological target: T2, N-terminal hexahistidine-tagged FPR; assay: receptor on DCNi beads, flow cytometry
[11] = biological target: T1, C-terminal hexahistidine-tagged FPR; assay: soluble receptor in detergent, dissociation of L^F
[12] = biological target: T2, N-terminal hexahistidine-tagged FPR; assay: soluble receptor in detergent, dissociation of L^F
[13] = biological target: B1; assay: soluble receptor in detergent, spectrofluorimetry, dissociation of L^F
Method: as §1

[14] = biological target: T1, C-terminal hexahistidine-tagged FPR; assay: receptor on DCNi beads, flow cytometry with rapid mixer, anti-FITC antibody added
[15] = biological target: B1; assay: spectrofluorimetric competition with L^F for soluble FPR; IC50 converted to Kd
Method: as §1
(§2) Comparison of LR and LRG Affinities for a Family of Non-fluorescent Ligands.

FPR-GFP fusion protein [16] = biological target: B3; assay: flow cytometry, LRG assembly on DCNi G beads with 30 nM FPR-GFP
Method: Standard LRG Assembly Assay. […] Each mixture was mixed by pipetting to ensure a uniform starting suspension of the beads in 96 V-well plates (Costar), and then mixed at low speed on a vortex mixer at 7° for two hours. The 10 μl assays were individually brought to 200 μl with 0.1% dodecyl maltoside in buffer A in 12×75 mm tubes for flow cytometric measurement of fluorescence of the beads. LRG assembly was defined as the difference between fluorescence without GTPγS and that with GTPγS. All determinations were done in duplicate.

FPR-GFP fusion protein [17] = biological target: B3; assay: Kd from competition on soluble FPR divided by EC50 of LRG assembly with FPR-GFP
From the text: as §2

For B1, the signal to background [1] was no more than 4 ratio, the “ratio of total signal to nonspecific signal” value (Gαi3β4γ2H6-FLAG) was 3 ratio and the “ratio of total signal to nonspecific signal” value [2] was 3 ratio.

In the case of B2, the “total fluorescence to background ratio” value [3] is reported as 2.7 ratio.

B3 was tested, and the “total binding to background ratio” value [4] was 4.9 ratio.

B4 was tested, and the Kd [5] was 4.8 nM, the Kd [6] was 5 nM and the Kd [7] was 10 nM. It also gave a Kd [8] of 7 nM, a Kd [9] of 4 nM and a Kd [10] of 8 nM. The “t1/2 (dissociation halftime)” value [11] was 14 s, the “t1/2 (dissociation halftime)” value [12] was 15 s and the “t1/2 (dissociation halftime)” value [13] was 14 s. For the same binder, the “t1/2 (dissociation halftime)” value [14] was 14 s.

With For-MLFF [fMLFF] the Kd [15] was 75 nM, the EC50 (FPR-GFP fusion protein [16]) was 27 nM and the “ratio of Kd (for LR) to EC50 (for LRG formation)” value (FPR-GFP fusion protein [17]) was 2.8 ratio.
